{
  "source": "paper PMC12103069",
  "about": "“Structure predictions of MuRF1‐UBE2 complexes identify amino acid residues governing interaction selectivity for each MuRF1‐E2 pair” (The Febs Journal, 2025)",
  "binders": {"B1": {"name": "GST-MuRF1RM (MuRF1 amino acids 1-115, RING and MFC domains) (domain or fragment, Rattus norvegicus)", "chain": "MDYKSGLIPDGNAMENLEKQLICPICLEMFTKPVVILPCQHNLCRKCANDIFQAANPYWTNRGGSVSMSGGRFRCPSCRHEVIMDRHGVYGLQRNLLVENIIDIYKQECSSRPLQ", "modifications": "red fluorescent dye NT-647, covalently, by amine coupling (in the fluorescence assay only)", "notes": "MuRF1 / TRIM63, Rattus norvegicus, first 115 amino acids (RING and MFC domains); Cloned in pGEX6P3; Immobilised unlabelled by amine coupling in SPR; labelled with NT-647 in the fluorescence assay; also called MuRF1 (in the SPR section); not shown: GST, N-terminal, kept"}, "B2": {"name": "GST-MuRF3 (full length) (enzyme, UniProt Q9ERP3 1-366, looked up)", "chain": "MNFTVGFKPLLGDAHNMDNLEKQLICPICLEMFSKPVVILPCQHNLCRKCANDVFQASNPLWQSRGSTTVSSGGRFRCPSCRHEVVLDRHGVYGLQRNLLVENIIDIYKQESSRPLHAKAEQHLMCEEHEDEKINIYCLSCEVPTCSLCKVFGAHKDCEVAPLPTIYKRQKSELSDGIAMLVAGNDRVQAVITQMEEVCQTIEDNSRRQKQLLNQRFETLCAVLEERKGELLQALAREQEEKLQRVRGLIRQYGDHLEGSSKLVESAIQSMEEPQMALYLQQAKELINKVGAMSKVELAGRPEPGYESMEQFSVSVEHVAEMLRTIDFQPGAAGDEEDDDMALDGEEGNAGLEEERLDVPEGSGLH", "modifications": "fluorochrome, covalently (NT-647 by amine coupling in the methods; NT115 in the results)", "notes": "Cloned in pGEX6P3"}},
  "assay_in_all_cases": "other fluorescence titration; change in the initial fluorescence of dye-labelled GST-MuRF (10 nM, constant) with a 16-sample serial dilution of the E2; MonolithX (NanoTemper), premium capillaries, 100% MST power, 25 °C; 50 mM HEPES pH 7.4, 150 mM NaCl, 0.005% Tween20, 0.1% dextran",
  "settings_in_all_cases": "both partners purified",
  "key": {"[1]": {"target": "B1"}, "[2]": {"target": "T1, GST-MuRF3RM (MuRF3 amino acids 1-115, RING and MFC domains) (UniProt Q9ERP3 1-115)", "T1 construct": "Cloned in pGEX6P3", "T1 sequence (looked up)": "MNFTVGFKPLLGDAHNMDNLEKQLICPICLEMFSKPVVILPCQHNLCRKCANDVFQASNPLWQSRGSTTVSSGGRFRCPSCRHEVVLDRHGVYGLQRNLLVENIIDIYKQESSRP"}, "GST-MuRF3 (full length)": {"target": "B2"}, "UBE2L3 wild type": {"target": "T2, UBE2L3 wild type (Mus musculus)", "T2 construct": "UBE2L3, Mus musculus, full length (amplified from C2C12 cells); Cloned in pET28a; source: E. coli Rosetta (DE3), purified (Ni-NTA)"}},
  "data": [
    {"binder": "UBE2E1 (enzyme, Mus musculus, UBE2E1, Mus musculus, full length (amplified from C2C12 cells); Cloned in pET28a; source: E. coli Rosetta (DE3), purified (Ni-NTA)) MSDDDSRASTSSSSSSSSNQQTEKEGSTPKKKESKVSMSKNSKLLSTSAKRIQKELADITLDPPPNCSAGPKGDNIYEWRSTILGPPGSVYEGGVFFLDITFTPEYPFKPPKVTFRTRIYHCNINSQGVICLDILKDNWSPALTISKVLLSICSLLTDCNPADPLVGSIATQYMTNRAEHDRMARQWTKRYAT", "values": [
      {"measurement": "Kd", "setting": "[1]", "result": 400, "unit": "nM"},
      {"measurement": "Kd", "setting": "[2]", "result": 500, "unit": "nM"}
    ]},
    {"binder": "UBE2J1 cytosolic part, wild type (domain or fragment, Mus musculus, UniProt Q9JJZ4 1-282, looked up, UBE2J1, Mus musculus, cytosolic part (amplified from C2C12 cells); Cloned in pET28a; source: E. coli Rosetta (DE3), purified (Ni-NTA)) METRYNLKSPAVKRLMKEAAELKDPTDHYHAQPLEDNLFEWHFTVRGPPDSDFDGGVYHGRIVLPPEYPMKPPSIILLTANGRFEVGKKICLSISGHHPETWQPSWSIRTALLAIIGFMPTKGEGAIGSLDYTPEERRALAKKSQDFCCEGCGSAMKDVLLPLKSGSGSSQADQEAKELARQISFKAEVNSSGKTIAESDLNQCFSLNDSQDDLPTTFQGATASTSYGAQNPSGAPLPQPTQPAPKNTSMSPRQRRAQQQSQRRPSTSPDVLQGQPPRAHHT", "values": [
      {"measurement": "Kd", "setting": "GST-MuRF3 (full length)", "result": 400, "unit": "nM"}
    ]},
    {"binder": "B1", "values": [
      {"measurement": "binding result", "setting": "UBE2L3 wild type", "result": "binds"}
    ]},
    {"binder": "B2", "values": [
      {"measurement": "Kd", "setting": "UBE2L3 wild type", "result": 400, "unit": "nM"}
    ]},
    {"binder": "UBE2J2 cytosolic part, wild type (domain or fragment, Mus musculus, UniProt Q6P073 1-226, looked up, UBE2J2, Mus musculus, cytosolic part (amplified from C2C12 cells); Cloned in pET28a; also called EJ2c; source: E. coli Rosetta (DE3), purified (Ni-NTA)) MSNNSNKRAPTTATQRLKQDYLRIKKDPVPYICAEPLPSNILEWHYVVRGPEMTPYEGGYYHGKLIFPREFPFKPPSIYMITPNGRFKCNTRLCLSITDFHPDTWNPAWSVSTILTGLLSFMVEKGPTLGSIETSDFTKKQLAAQSLVFNLKDKVFCELFPEVVEEIKQKQKAQDELSNRPQNLPLPDVVPDGELHRGQHGIQLLNGHAPAAGPNLAGLPQANRHH", "values": [
      {"measurement": "Kd", "setting": "GST-MuRF3 (full length)", "result": 24800, "unit": "nM"}
    ]}
  ]
}
